The values that follow come from IntAct's records for PubMed 16002617.

The labels stand for the following.
B1: Cyclic dof factor 1 (Arabidopsis thaliana (Mouse-ear cress)), Q8W1E3 (parent)
chain: MLETKDPAIKLFGMKIPFPTVLEVADEEEEKNQNKTLTDQSEKDKTLKKPTKILPCPRCNSMETKFCYYNNYNVNQPRHFCKACQRYWTSGGTMRSVPIGAGRRKNKNNSPTSHYHHVTISETNGPVLSFSLGDDQKVSSNRFGNQKLVARIENNDERSNNNTSNGLNCFPGVSWPYTWNPAFYPVYPYWSMPVLSSPVSSSPTSTLGKHSRDEDETVKQKQRNGSVLVPKTLRIDDPNEAAKSSIWTTLGIKNEVMFNGFGSKKEVKLSNKEETETSLVLCANPAALSRSINFHEQM

This test covers variants of B1. The conditions noted are these: with ado3_arath ADO3, Q9C9W9.
Sequence of ado3_arath ADO3, Q9C9W9 (Q9C9W9 whole entry): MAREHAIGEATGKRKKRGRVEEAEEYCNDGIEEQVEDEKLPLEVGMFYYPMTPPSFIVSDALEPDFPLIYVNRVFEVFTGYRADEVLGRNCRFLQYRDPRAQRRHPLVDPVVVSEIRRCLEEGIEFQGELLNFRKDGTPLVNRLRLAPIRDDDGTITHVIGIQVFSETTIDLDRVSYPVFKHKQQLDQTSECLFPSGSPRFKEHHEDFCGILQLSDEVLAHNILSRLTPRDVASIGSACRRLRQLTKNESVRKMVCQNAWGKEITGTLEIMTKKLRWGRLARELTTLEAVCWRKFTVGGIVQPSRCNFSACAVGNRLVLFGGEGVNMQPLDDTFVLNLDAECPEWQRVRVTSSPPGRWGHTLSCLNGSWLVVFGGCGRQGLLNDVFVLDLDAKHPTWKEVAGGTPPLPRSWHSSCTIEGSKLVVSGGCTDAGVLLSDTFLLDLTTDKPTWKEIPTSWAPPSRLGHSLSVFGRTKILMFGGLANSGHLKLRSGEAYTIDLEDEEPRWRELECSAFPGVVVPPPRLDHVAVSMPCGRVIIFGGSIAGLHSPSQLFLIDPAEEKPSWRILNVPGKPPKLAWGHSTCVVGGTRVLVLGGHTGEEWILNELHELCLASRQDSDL
For K253A, the “effect of a mutation on the interaction” value is given as “decreasing interaction”.
